Results from patent US20210130436A1 (published 2021).
Numbering of substitutions follows the chain as printed. Numbers in names are those of the source. Each block holds one binder with its values, some of them ahead of it.

What was measured:
[1] = target: T1, human PD-L1, full-length, on CHO cells (human, UniProt Q9NZQ7 19-290); assay: flow cytometry; PD-L1 MFI over CD28 MFI
T1 construct: also called huPD-L1; CD274

[2] = target: T2, human CTLA4 (CTLA-4), full-length, on CHO cells (human, UniProt P16410 36-223); assay: flow cytometry, CHO/CTLA4 cells; MFI relative to WT CD80 ECD-Fc
T2 construct: also called huCTLA4

[3] = target: T1, human PD-L1, full-length, on CHO cells; assay: flow cytometry, CHO cells stably expressing PD-L1
[4] = target: T3, CD28 endogenously expressed on Jurkat/IL2 reporter cells (human, UniProt P10747 19-220); assay: flow cytometry, Jurkat cells (CD28)
T3 construct: also called Jurkats (CD28)

[5] = target: T3, CD28 endogenously expressed on …; assay: flow cytometry, Jurkat cells (CD28); MFI relative to WT CD80 ECD-Fc
[6] = target: T2, human CTLA4 (CTLA-4), full-length, on …; assay: flow cytometry, CHO cells stably expressing CTLA4
[7] = target: T1, human PD-L1, full-length, on CHO cells; assay: flow cytometry, CHO/PD-L1 cells; MFI relative to WT CD80 ECD-Fc
CD226 = target: T4, CD226 (Homo sapiens (Human), UniProt Q15762 19-336); assay: flow cytometry, Fc fusion at 100 nM, CD226-transfected cells
T4 sequence: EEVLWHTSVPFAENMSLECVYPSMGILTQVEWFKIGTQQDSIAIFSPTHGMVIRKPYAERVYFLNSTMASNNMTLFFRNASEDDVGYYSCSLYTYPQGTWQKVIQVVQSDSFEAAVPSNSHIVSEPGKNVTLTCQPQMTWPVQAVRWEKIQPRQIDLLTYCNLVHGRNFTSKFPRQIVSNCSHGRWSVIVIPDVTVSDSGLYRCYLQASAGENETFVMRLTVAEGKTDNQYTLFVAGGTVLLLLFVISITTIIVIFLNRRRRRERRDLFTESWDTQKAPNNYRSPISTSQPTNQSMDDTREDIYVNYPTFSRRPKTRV

TIGIT = target: T5, TIGIT (Homo sapiens (Human), UniProt Q495A1 22-244); assay: flow cytometry, Fc fusion at 100 nM, TIGIT-transfected cells
T5 sequence: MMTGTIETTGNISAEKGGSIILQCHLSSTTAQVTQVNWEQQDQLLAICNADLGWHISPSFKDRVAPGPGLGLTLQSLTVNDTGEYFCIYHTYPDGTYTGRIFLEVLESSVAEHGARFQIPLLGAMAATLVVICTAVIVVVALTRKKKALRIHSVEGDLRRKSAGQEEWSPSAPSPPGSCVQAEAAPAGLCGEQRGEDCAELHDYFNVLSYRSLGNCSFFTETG

CD96 = target: T6, CD96 (UniProt P40200 22-585, limits assumed); assay: flow cytometry, Fc fusion at 100 nM, CD96-transfected cells
T6 construct: whole, on cells
T6 sequence (looked up): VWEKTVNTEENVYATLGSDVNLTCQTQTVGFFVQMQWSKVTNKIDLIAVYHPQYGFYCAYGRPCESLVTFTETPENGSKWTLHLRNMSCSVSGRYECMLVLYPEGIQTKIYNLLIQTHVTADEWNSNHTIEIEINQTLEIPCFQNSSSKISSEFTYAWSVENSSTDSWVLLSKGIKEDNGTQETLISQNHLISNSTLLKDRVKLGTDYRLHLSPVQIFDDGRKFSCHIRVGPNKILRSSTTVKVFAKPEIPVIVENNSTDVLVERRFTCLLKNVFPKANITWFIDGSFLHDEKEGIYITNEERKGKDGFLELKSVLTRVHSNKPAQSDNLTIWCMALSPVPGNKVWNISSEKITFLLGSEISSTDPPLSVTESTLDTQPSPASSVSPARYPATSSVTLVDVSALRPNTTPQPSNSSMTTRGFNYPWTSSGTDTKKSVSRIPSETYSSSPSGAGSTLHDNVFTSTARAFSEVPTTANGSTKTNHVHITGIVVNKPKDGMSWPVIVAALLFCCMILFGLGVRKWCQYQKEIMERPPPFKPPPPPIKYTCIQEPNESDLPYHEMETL

T1 sequence (Q9NZQ7 19-290): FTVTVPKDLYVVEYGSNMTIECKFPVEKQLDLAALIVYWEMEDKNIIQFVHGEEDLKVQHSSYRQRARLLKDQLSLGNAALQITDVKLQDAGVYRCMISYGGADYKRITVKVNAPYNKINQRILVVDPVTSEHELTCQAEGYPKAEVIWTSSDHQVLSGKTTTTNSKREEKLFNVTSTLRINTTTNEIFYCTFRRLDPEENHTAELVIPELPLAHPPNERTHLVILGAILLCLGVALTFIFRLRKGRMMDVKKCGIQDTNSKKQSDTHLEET
T2 sequence (P16410 36-223): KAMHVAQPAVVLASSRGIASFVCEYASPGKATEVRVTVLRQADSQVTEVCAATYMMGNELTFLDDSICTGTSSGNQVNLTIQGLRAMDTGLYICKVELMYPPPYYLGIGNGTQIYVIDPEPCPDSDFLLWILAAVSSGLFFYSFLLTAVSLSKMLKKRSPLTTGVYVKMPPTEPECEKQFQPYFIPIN

Ratio of PDL1:CD28 [1]: 13.1 ratio
Fold change to WT CD80 [2]: 0.2 fold
MFI at 33.3 nM [3]: 4290 MFI
MFI at 33.3 nM [4]: 328 MFI
Fold change to WT CD80 [5]: 0.5 fold
MFI at 33.3 nM [6]: 7280 MFI
Fold change to WT CD80 [7]: 33.5 fold
B1: variant CD80 IgV-Fc M47V/V68M (Fc fusion, not shown: small tags and cut ends; a dimerising Fc or GST)
chain: VIHVTKEVKEVATLSCGHNVSVEELAQTRIYWQKEKKMVLTMMSGDVNIWPEYKNRTIFDITNNLSIMILALRPSDEGTYECVVLKYEKDAFKREHLAEVTLSVKAD

Ratio of PDL1:CD28 [1]: 8 ratio
Fold change to WT CD80 [2]: 0.1 fold
MFI at 33.3 nM [3]: 481 MFI
MFI at 33.3 nM [4]: 60.1 MFI
Fold change to WT CD80 [5]: 0.1 fold
MFI at 33.3 nM [6]: 4950 MFI
Fold change to WT CD80 [7]: 3.8 fold
B2: variant CD80 IgV-Fc N48K (Fc fusion, not shown: small tags and cut ends; a dimerising Fc or GST)
chain: B1 chain with V47M, N48K, M68V

Ratio of PDL1:CD28 [1]: 3.8 ratio
Fold change to WT CD80 [2]: 0.1 fold
MFI at 33.3 nM [3]: 347 MFI
MFI at 33.3 nM [4]: 91.7 MFI
Fold change to WT CD80 [5]: 0.1 fold
MFI at 33.3 nM [6]: 3290 MFI
Fold change to WT CD80 [7]: 2.7 fold
B3: variant CD80 IgV-Fc V68M/L85Q (Fc fusion, not shown: small tags and cut ends; a dimerising Fc or GST)
chain: B1 chain with V47M, L85Q

Ratio of PDL1:CD28 [1]: 3.1 ratio
Fold change to WT CD80 [2]: 0 fold
MFI at 33.3 nM [3]: 118 MFI
MFI at 33.3 nM [4]: 37.9 MFI
Fold change to WT CD80 [5]: 0.1 fold
MFI at 33.3 nM [6]: 568 MFI
Fold change to WT CD80 [7]: 0.9 fold
B4: variant CD80 IgV-Fc V68M (Fc fusion, not shown: small tags and cut ends; a dimerising Fc or GST)
chain: B1 chain with V47M

MFI at 100 nM (CD226): 2680 MFI
MFI at 100 nM (TIGIT): 2220 MFI
B5: variant CD155 IgV-Fc S52L (Fc fusion, not shown: a dimerising Fc or GST)
chain: WPPPGTGDVVVQAPTQVPGFLGDSVTLPCYLQVPNMEVTHVSQLTWARHGELGSMAVFHQTQGPSYSESKRLEFVAARLGAELRNASLRMFGLRVEDEGNYTCLFVTFPQGSRSVDIWLRVL

MFI at 100 nM (CD226): 2620 MFI
MFI at 100 nM (TIGIT): 2530 MFI
MFI at 100 nM (CD96): 1830 MFI
B6: variant CD155 IgV-Fc Q62Y (Fc fusion, not shown: a dimerising Fc or GST)
chain: B5 chain with L52S, Q62Y

MFI at 100 nM (CD226): 6470 MFI
MFI at 100 nM (TIGIT): 1950 MFI
MFI at 100 nM (CD96): 1700 MFI
B7: variant CD155 IgV-Fc S42L/S52Q/L104E (Fc fusion, not shown: a dimerising Fc or GST)
chain: B5 chain with S42L, L52Q, L104E

MFI at 100 nM (CD226): 2570 MFI
MFI at 100 nM (TIGIT): 2210 MFI
MFI at 100 nM (CD96): 2760 MFI
B8: variant CD155 IgV-Fc Q62F (Fc fusion, not shown: a dimerising Fc or GST)
chain: B5 chain with L52S, Q62F

MFI at 100 nM (CD226): 1890 MFI
MFI at 100 nM (TIGIT): 2260 MFI
MFI at 100 nM (CD96): 1610 MFI
B9: variant CD155 IgV-Fc S42A/S52L/L104E/G111R (Fc fusion, not shown: a dimerising Fc or GST)
chain: B5 chain with S42A, L104E, G111R

MFI at 100 nM (CD226): 2640 MFI
MFI at 100 nM (TIGIT): 2020 MFI
MFI at 100 nM (CD96): 2320 MFI
B10: variant CD155 IgV-Fc S42L/S52L/Q62F/L104Q (Fc fusion, not shown: a dimerising Fc or GST)
chain: B5 chain with S42L, Q62F, L104Q

MFI at 100 nM (CD226): 2310 MFI
MFI at 100 nM (TIGIT): 2430 MFI
MFI at 100 nM (CD96): 1960 MFI
B11: variant CD155 IgV-Fc S42N/L104Q/G111R (Fc fusion, not shown: a dimerising Fc or GST)
chain: B5 chain with S42N, L52S, L104Q, G111R

MFI at 100 nM (CD226): 2040 MFI
MFI at 100 nM (TIGIT): 1970 MFI
MFI at 100 nM (CD96): 1520 MFI
B12: variant CD155 IgV-Fc Q62F/L104E/G111R (Fc fusion, not shown: a dimerising Fc or GST)
chain: B5 chain with L52S, Q62F, L104E, G111R

MFI at 100 nM (CD226): 2160 MFI
MFI at 100 nM (TIGIT): 1810 MFI
MFI at 100 nM (CD96): 1640 MFI
B13: variant CD155 IgV-Fc S42A/S52Q/L104Q/G111R (Fc fusion, not shown: a dimerising Fc or GST)
chain: B5 chain with S42A, L52Q, L104Q, G111R

MFI at 100 nM (CD226): 2100 MFI
MFI at 100 nM (TIGIT): 1910 MFI
MFI at 100 nM (CD96): 1590 MFI
B14: variant CD155 IgV-Fc S42C (Fc fusion, not shown: a dimerising Fc or GST)
chain: B5 chain with S42C, L52S

MFI at 100 nM (CD226): 1900 MFI
MFI at 100 nM (TIGIT): 1920 MFI
MFI at 100 nM (CD96): 1700 MFI
B15: variant CD155 IgV-Fc S42A/L104Q/G111R (Fc fusion, not shown: a dimerising Fc or GST)
chain: B5 chain with S42A, L52S, L104Q, G111R
